Drawing on PMC5171940, this text covers fold reduction of affinity against wild-type CreneFab for two molecules.

This assay deals with biotinylated Aβ immobilised for the SPR of CreneFab alanine mutants. Nature of the assay: SPR; BIAcore T200, single-cycle kinetics; biotinylated Aβ (11–28 or oligomeric 1–42) captured on streptavidin-coupled CM5 chip (100–200 RU); antibody as analyte 0.8–500 nM in HBS-P pH 7.4, 0.15 M NaCl; one-to-one Langmuir model.

B1: CreneFab Ser52a alanine mutant (Fab, V domains shown)
VH: EVQLVESGGGLVQPGGSLRLSCAASGFTFSSYGMSWVRQAPGKGLELVASINANGGSTYYPDSVKGRFTISRDNAKNSLYLQMNSLRAEDTAVYYCASGDYWGQGTLVTVSS
VL: DIVMTQSPLSLPVTPGEPASISCRSSQSLVYSNGDTYLHWYLQKPGQSPQLLIYKVSNRFSGVPDRFSGSGSGTDFTLKISRVEAEDVGVYYCSQSTHVPWTFGQGTKVEIK
B1 had a fold reduction of affinity against wild-type CreneFab of 1.8 fold.

B2: CreneFab with deletion of Glu1^HC and Val2^HC (Fab, V domains shown)
VH: QLVESGGGLVQPGGSLRLSCAASGFTFSSYGMSWVRQAPGKGLELVASINSNGGSTYYPDSVKGRFTISRDNAKNSLYLQMNSLRAEDTAVYYCASGDYWGQGTLVTVSS
VL: B1 VL
With B2, the fold reduction of affinity against wild-type CreneFab stood at 2.6 fold.
